Results published in patent publication US20130316404A1.

Target: IL-10 receptor (IL-10R) on mouse splenocytes (mouse) (UniProt Q61727)
Test: cell-based or functional assay

Sequence of UniProt Q61727 (Q61727 17-575): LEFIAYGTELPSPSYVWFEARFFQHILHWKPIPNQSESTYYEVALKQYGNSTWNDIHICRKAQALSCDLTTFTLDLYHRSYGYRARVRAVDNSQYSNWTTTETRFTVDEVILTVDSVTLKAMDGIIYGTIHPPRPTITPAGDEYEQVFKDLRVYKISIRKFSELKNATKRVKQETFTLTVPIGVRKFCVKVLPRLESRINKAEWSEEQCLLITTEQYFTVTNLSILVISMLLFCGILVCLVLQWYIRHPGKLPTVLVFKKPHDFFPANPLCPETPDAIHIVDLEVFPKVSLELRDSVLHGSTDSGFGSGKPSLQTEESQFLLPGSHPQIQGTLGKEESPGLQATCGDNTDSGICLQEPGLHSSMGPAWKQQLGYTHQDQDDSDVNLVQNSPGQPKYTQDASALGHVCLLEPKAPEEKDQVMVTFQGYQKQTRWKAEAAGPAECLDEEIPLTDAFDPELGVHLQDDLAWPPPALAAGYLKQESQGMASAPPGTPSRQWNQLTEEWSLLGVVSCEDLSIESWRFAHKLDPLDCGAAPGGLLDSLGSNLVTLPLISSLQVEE

Row | Substance | STAT3 phosphorylation in mouse splenocytes (Western blot), concentration giving equal signal
1 | recombinant wildtype mouse IL-10 expressed in human HEK293 cells (from UniProt P18893 19-178) (ligand) | 100 ng/mL
2 | stabilized recombinant IL-10 dimer (two wildtype murine IL-10 monomers joined C-terminus to N-terminus by a 7 amino acid peptide linker, one continuous polypeptide) (from UniProt P18893 19-178) (ligand) | 10 ng/mL
